We go through 1 substance from patent US20120315277A1, “Compositions and Methods for the Therapy and Diagnosis of Influenza” (priority 2011, published 2012).

In the assay the target is M2 protein of influenza A/Puerto Rico/8/34 (H1N1) on cells (influenza A virus A/Puerto Rico/8/34 (H1N1)) (UniProt P06821). The experiment in a line: FACS, MDCK cells infected with A/Puerto Rico/8/34.
M2 protein of influenza A/Puerto Rico/8/34 (H1N1) on cells (influenza A virus A/Puerto Rico/8/34 (H1N1)), sequence (P06821 whole entry): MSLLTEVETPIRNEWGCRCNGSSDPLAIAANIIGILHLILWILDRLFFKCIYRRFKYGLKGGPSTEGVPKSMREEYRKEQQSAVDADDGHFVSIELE

The substance “14C2 (chimeric mouse V-region/human IgG1 kappa 14C2 antibody)” yielded an EC50 (read off the curve) of 0.3 µg/mL.
